Test results published in patent US20210238276A1 (INTEGRAL MOLECULAR, published 2021).
Residue numbers refer to the chain shown, from its start.

Tests used:
Assay in all cases: flow cytometry, alanine-scan library in HEK-293T
hsGLUT4 R169A = biological target: T1, hsGLUT4 R169A (human, UniProt P14672 1-509)
T1 sequence: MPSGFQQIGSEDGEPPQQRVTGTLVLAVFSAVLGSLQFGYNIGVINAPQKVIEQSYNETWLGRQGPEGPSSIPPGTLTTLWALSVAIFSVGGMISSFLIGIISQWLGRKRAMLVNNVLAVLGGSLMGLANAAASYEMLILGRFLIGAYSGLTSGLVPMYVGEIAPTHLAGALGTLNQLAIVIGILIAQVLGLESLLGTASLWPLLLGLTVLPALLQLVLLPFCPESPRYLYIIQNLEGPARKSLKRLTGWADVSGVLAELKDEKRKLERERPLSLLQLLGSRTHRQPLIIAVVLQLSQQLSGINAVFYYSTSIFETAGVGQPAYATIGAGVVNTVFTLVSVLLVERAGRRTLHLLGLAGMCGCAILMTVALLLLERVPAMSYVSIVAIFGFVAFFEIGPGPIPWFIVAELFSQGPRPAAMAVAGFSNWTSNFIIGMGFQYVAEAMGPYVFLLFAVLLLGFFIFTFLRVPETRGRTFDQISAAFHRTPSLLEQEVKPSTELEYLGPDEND
Outline: (§1)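 HEK-293T cells expressing individual GLUT4 alanine mutants were stained 48 h post-transfection with anti-GLUT4 scFv MAbs (2 μg/ml), then biotinylated secondary and streptavidin-PerCP, and read by high-throughput flow cytometry. Where used, cytochalasin B (10 uM final) was given for 30 min before and during primary antibody staining.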

hsGLUT4 Q295A = biological target: T2, hsGLUT4 Q295A (human, UniProt P14672 1-509)
T2 sequence: T1 sequence with A169R, Q295A
Outline: as §1

hsGLUT4 E345A = biological target: T3, hsGLUT4 E345A (human, UniProt P14672 1-509)
T3 sequence: T1 sequence with A169R, E345A
Outline: as §1

hsGLUT4 E507A = biological target: T4, hsGLUT4 E507A (human, UniProt P14672 1-509)
T4 sequence: T1 sequence with A169R, E507A
Outline: as §1

1F8 (antibody) gave a % of binding to wild type GLUT4 (hsGLUT4 R169A) of 84%, a % of binding to wild type GLUT4 (hsGLUT4 Q295A) of 81% and a % of binding to wild type GLUT4 (hsGLUT4 E345A) of 93%. The % of binding to wild type GLUT4 (hsGLUT4 E507A) was 127%.

B1: AB101 (scFv)
scFv: ALTQPSSVSANPGETVKITCSGSSNSYGWYQQKSPGSAPVTVIYYNDKRPSDIPSRFSGSKSDSTHTLTITGVRAEDEAVYFCGSYDSTYVGIFGAGTTLTVLGQSSRSSGGGGSSGGGGSAVTLDESGGGLQTPGGTLSLVCKASGFTFSSNAMGWVRQAPGKGLEWVAGISSDGRYTKYGSAVKGRATISRDNGQSTVRLQLNNLRAEDTGTYFCAKAFGNNYRRIYAGQIDAWGHGTEVIVSS
notes: Chicken-derived clone used as a control; the four lead clones were tested as scFv-human IgG1 Fc; also called MAb AB101
With B1 the “% of binding to wild type GLUT4” value (hsGLUT4 R169A) was 119%, the “% of binding to wild type GLUT4” value (hsGLUT4 Q295A) was 102% and the “% of binding to wild type GLUT4” value (hsGLUT4 E345A) was 78%. For the same molecule, the “% of binding to wild type GLUT4” value (hsGLUT4 E507A) was 5%.

B2: AB111 (Fc fusion)
scFv: ALTQPSSVSANPGETVKITCSGSGSWYGWFQQKSPGSAPVTVIYSNDKRPSDIPSRFSGSKSGSTSTLTITGVQVEDEAVYYCGNWDIFGAGTTLTVLGQSSRSSGGGGSSGGGGSAVTLDESGGGLQTPGGALSLVCKASGFTFSSHGMGWVRQAPGKGLEWVASISTGRYTFYAPAVKGRATISRDNGQSTVRLQLNNLRAEDTATYYCTKCAGLNGCGGGEIDAWGHGTEVIVSS
notes: Bivalent scFv-Fc; also called MAb AB111; not shown: Fc fragment of human IgG1, cloned in frame with the scFv
In the case of B2, the “% of binding to wild type GLUT4” value (hsGLUT4 R169A) is reported as 97%, the “% of binding to wild type GLUT4” value (hsGLUT4 Q295A) is reported as 138% and the “% of binding to wild type GLUT4” value (hsGLUT4 E345A) is reported as 200%. For the same molecule, the “% of binding to wild type GLUT4” value (hsGLUT4 E507A) was 119%.

B3: AB108 (Fc fusion)
scFv: ALTQPSSVSANLGGTVKITCSGSSGSYGWYQQKAPGSAPVTLIYRNDKRPSDIPSRFSGSESGSTGTLTITGVQAEDEAVYFCGGYDSSAGYAAFGAGTTLTVLGQSSRSSGGGGSSGGGGSAVTLDESGGGLQTPGGALSLVCKASGFTFSSHGMGWVRQAPGKGLEWVGSISTGRYTFYAPAVKGRATISRDNGQSTLRLQLNNLRAEDTGTYYCTKCAGLNGCGGGEIDAWGHGTEVIVSS
notes: Bivalent scFv-Fc; also called MAb AB108; not shown: Fc fragment of human IgG1, cloned in frame with the scFv
For B3, the “% of binding to wild type GLUT4” value (hsGLUT4 R169A) was 108%, the “% of binding to wild type GLUT4” value (hsGLUT4 Q295A) was 113% and the “% of binding to wild type GLUT4” value (hsGLUT4 E345A) was 88%. For the same molecule, the “% of binding to wild type GLUT4” value (hsGLUT4 E507A) was 53%.
